In patent CN116355095A (SHANGHAI L&L VISION BIOPHARMACEUTICALS CO LTD, dated 2023):
Values joined by “and” are separate entries in the source; they are usually repeats but may differ in a detail not shown here. Identical values can stand only once. Blank lines part the entries; values can stand above or below the binder they belong to.

Legend:
人TIGIT-hFc [1] = target: T1, 人TIGIT-hFc (human, UniProt Q495A1 22-141; P01857 99-330 = IgG part, limits assumed); test: blocking ELISA: Bio-CD155 on coated TIGIT-hFc
T1 construct: extracellular domain;domain: IgG1 Fc区域; also called hTIGIT

CHO-K1-T1001细胞表达的人TIGIT [2] = target: T2, CHO-K1-T1001细胞表达的人TIGIT (human, UniProt Q495A1 22-244); test: cell ELISA on fixed hTIGIT+ CHO-K1 cells
T2 construct: whole, on cells; also called hTIGIT+细胞; CHO-K1 TIGIT+细胞系
T2 sequence (looked up): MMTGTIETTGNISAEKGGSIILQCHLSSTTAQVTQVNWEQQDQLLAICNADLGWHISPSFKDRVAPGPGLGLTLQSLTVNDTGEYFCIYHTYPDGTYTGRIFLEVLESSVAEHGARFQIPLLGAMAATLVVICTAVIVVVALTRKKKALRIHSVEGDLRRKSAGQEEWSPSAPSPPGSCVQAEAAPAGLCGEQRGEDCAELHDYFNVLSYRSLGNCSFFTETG

人TIGIT-hFc [3] = target: T1, 人TIGIT-hFc; test: blocking ELISA: Bio-CD155 on coated TIGIT-hFc; reference Ref1
CHO-K1-T1001细胞表达的人TIGIT [4] = target: T2, CHO-K1-T1001细胞表达的人TIGIT; test: cell ELISA on fixed hTIGIT+ CHO-K1 cells; reference Ref1
[5] = target: T3, 人TIGIT重组蛋白 (hTIGIT; TIGIT-hFc 或 TIGIT-his) (human, UniProt Q495A1 22-141); test: ELISA on coated antigen
T3 construct: extracellular domain; not shown: C-terminal tag (-his, -hFc or -mFc)
T3 sequence (looked up): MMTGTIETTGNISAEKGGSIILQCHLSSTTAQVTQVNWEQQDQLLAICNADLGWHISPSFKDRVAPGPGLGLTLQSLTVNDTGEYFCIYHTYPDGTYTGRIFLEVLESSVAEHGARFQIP

LT023 (TIGIT/his) = target: T4, LT023 (TIGIT/his) (human, UniProt Q495A1 22-141); test: double sandwich ELISA: coated TIGIT/his, detection with PD-L1/mFc (Example 6), used on serum samples
T4 construct: extracellular domain; Made in-house
T4 sequence: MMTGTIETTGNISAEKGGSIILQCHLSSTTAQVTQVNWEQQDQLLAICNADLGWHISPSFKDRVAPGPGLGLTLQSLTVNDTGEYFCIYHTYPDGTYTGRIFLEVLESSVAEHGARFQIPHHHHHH

人PD-1(hFc/his tag) = target: T5, 人PD-1(hFc/his tag) (human, UniProt Q15116 25-170); test: ELISA on coated antigen
T5 construct: extracellular domain; not shown: C-terminal tag (hFc or his)

[6] = target: T3, 人TIGIT重组蛋白 (hTIGIT; TIGIT-hFc 或 …); test: ELISA on coated hTIGIT
[7] = target: T3, 人TIGIT重组蛋白 (hTIGIT; TIGIT-hFc 或 …); test: ELISA on coated hTIGIT; reference Ref2
恒河猴TIGIT-mFc [8] = target: T6, 恒河猴TIGIT-mFc (rhesus monkey; mouse, UniProt A0A5F8AKQ5 22-142; P01863 98-330 = IgG part); test: ELISA on coated RhTIGIT-mFc
T6 construct: also called RhTIGIT-mFc; RhTIGIT

恒河猴TIGIT-mFc [9] = target: T6, 恒河猴TIGIT-mFc; test: ELISA on coated RhTIGIT-mFc; reference Ref2
人TIGIT-hFc [10] = target: T1, 人TIGIT-hFc; test: blocking ELISA: Bio-CD155 on coated TIGIT-hFc; reference Ref2
恒河猴TIGIT-mFc [11] = target: T6, 恒河猴TIGIT-mFc; test: ELISA on coated RhTIGIT-mFc; reference Ref1
CHO-K1-T1001细胞表达的人TIGIT [12] = target: T2, CHO-K1-T1001细胞表达的人TIGIT; test: cell ELISA on fixed hTIGIT+ CHO-K1 cells; reference Ref2
小鼠TIGIT-his = target: T7, 小鼠TIGIT-his (mouse, UniProt P86176 29-148, limits assumed); test: ELISA on coated antigen (Example 3)
T7 construct: Bought reagent; also called mouse TIGIT-his; muTIGIT-his
T7 sequence: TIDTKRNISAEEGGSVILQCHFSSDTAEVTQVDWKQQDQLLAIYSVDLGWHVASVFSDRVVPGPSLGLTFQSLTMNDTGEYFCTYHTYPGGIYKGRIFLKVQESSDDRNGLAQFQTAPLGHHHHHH

T6 sequence (P01863 other isoform, or with tags, fused parts or gaps): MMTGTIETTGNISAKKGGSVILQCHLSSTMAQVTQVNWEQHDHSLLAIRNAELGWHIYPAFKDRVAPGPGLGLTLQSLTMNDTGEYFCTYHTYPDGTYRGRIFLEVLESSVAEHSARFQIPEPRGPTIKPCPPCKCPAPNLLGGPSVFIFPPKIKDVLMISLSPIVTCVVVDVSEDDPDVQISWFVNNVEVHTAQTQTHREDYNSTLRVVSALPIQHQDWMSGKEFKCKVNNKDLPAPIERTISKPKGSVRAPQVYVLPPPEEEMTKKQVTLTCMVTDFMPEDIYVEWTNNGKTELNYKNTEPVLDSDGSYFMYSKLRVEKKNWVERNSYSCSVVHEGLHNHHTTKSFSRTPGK
T5 sequence (Q15116 25-170): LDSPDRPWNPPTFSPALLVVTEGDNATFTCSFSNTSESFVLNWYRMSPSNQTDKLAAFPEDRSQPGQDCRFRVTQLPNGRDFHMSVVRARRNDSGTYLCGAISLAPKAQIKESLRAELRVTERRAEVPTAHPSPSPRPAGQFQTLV

B1: 人源化抗体mab22-h6 (antibody, human IgG1, kappa)
heavy: not shown
light: DIVMTQSPLSLPVTPGEPASISCRSSQSIVHNSGNTYLEWYLQKPGQSPKLLIYKVSNRFSGVPDRFSGSGSGTDFTLKISRVEAEDVGVYYCFQFSHVPRTFGGGTKVEIKRTVAAPSVFIFPPSDEQLKSGTASVVCLLNNFYPREAKVQWKVDNALQSGNSQESVTEQDSKDSTYSLSSTLTLSKADYEKHKVYACEVTHQGLSSPVTKSFNRGEC
notes: hIgG1, kappa
IC50 (人TIGIT-hFc [1]): 1.44 nM
EC50 (CHO-K1-T1001细胞表达的人TIGIT [2]): 0.0133 nM
IC50 ratio to Ref1 (人TIGIT-hFc [3]): 0.44 fold
EC50 ratio to Ref1 (CHO-K1-T1001细胞表达的人TIGIT [4]): 0.5 fold

B2: 双特异抗体LB621 (bispecific antibody)
heavy: not shown
light: DIVMTQSPLSLPVTPGEPASISCRSSQSIVHNSGNTYLEWYLQKPGQSPKLLIYKVSNRFSGVPDRFSGSGSGTDFTLKISRVEAEDVGVYYCFQFSHVPRTFGGGTKVEIKRTVAAPSVFIFPPSDEQLKSGTASVVCLLNNFYPREAKVQWKVDNALQSGNSQESVTEQDSKDSTYSLSSTLTLSKADYEKHKVYACEVTHQGLSSPVTKSFNRGEC
notes: Whole mab22-h6 antibody with an anti-PD-L1 (Atezo) scFv joined to its heavy chain; the printed heavy chain carries the scFv at the C-terminus with the last K changed to A
binding result [5]: binds
binding result (LT023 (TIGIT/his)): binds

B3: 双特异抗体LB615 (bispecific antibody)
heavy: not shown
light: DIVMTQSPLSLPVTPGEPASISCRSSQSIVHNSGNTYLEWYLQKPGQSPKLLIYKVSNRFSGVPDRFSGSGSGTDFTLKISRVEAEDVGVYYCFQFSHVPRTFGGGTKVEIKRTVAAPSVFIFPPSDEQLKSGTASVVCLLNNFYPREAKVQWKVDNALQSGNSQESVTEQDSKDSTYSLSSTLTLSKADYEKHKVYACEVTHQGLSSPVTKSFNRGEC
binding result [5]: binds

B4: 双特异抗体LB610 (bispecific antibody, human IgG1, kappa)
heavy: not shown
light: DIVMTQSPLSLPVTPGEPASISCRSSQSIVHNSGNTYLEWYLQKPGQSPKLLIYKVSNRFSGVPDRFSGSGSGTDFTLKISRVEAEDVGVYYCFQFSHVPRTFGGGTKVEIKRTVAAPSVFIFPPSDEQLKSGTASVVCLLNNFYPREAKVQWKVDNALQSGNSQESVTEQDSKDSTYSLSSTLTLSKADYEKHKVYACEVTHQGLSSPVTKSFNRGEC
binding result (人PD-1(hFc/his tag)): binds
binding result [5]: binds

Results, then the binder that gave them:

binding result [6]: binds
binding result (CHO-K1-T1001细胞表达的人TIGIT [2]): binds
B5: 人源化抗体mab22-h1 (antibody, human IgG1, kappa, V domains shown)
VH: EVQLVESGGGLVQPGGSLRLSCAASGFTFSSYTMSWVRQAPGKGLEWVSEISSSGGSTYYPDTVKGRFTISRDNSKNTLYLQMNSLRAEDTAVYYCARPGLGAWFAYWGQGTLVTVSS
VL: DIVMTQSPLSLPVTPGEPASISCRSSQSIVHNSGNTYLEWYLQKPGQSPQLLIYKVSNRFSGVPDRFSGSGSGTDFTLKISRVEAEDVGVYYCFQFSHVPRTFGGGTKVEIKR
notes: hIgG1, kappa

EC50 ratio to Ref2 [7]: 0.68 fold
EC50 (恒河猴TIGIT-mFc [8]): 0.658 nM
EC50 ratio to Ref2 (恒河猴TIGIT-mFc [9]): ~2 fold
IC50 (人TIGIT-hFc [1]): 0.541 nM
EC50 [6]: 0.27 nM and 0.585 nM
IC50 ratio to Ref2 (人TIGIT-hFc [10]): 0.51 fold
EC50 ratio to Ref1 (恒河猴TIGIT-mFc [11]): ~2 fold
EC50 (CHO-K1-T1001细胞表达的人TIGIT [2]): 0.101 nM
EC50 ratio to Ref2 (CHO-K1-T1001细胞表达的人TIGIT [12]): 0.47 fold
IC50 ratio to Ref1 (人TIGIT-hFc [3]): 0.46 fold
B6: 嵌合抗体mab22c (antibody, human IgG1, kappa, V domains shown)
VH: EVKLVESGGGLVQPGGSLKLSCVASGFTFSSYTMSWVRQTPEKRLELVAEISSSGGSTYYPDTVKGRFTISRDNAKNTLFLQMNSLKSEDTAMYYCARPGLGAWFAYWGQGTLVTVSA
VL: DVLMTQTPLSLPVSLGDQASISCRSSQSIVHNSGNTYLEWYLQKPGQSPKLLIYKVSNRFSGVPDRFSGSGSGTDFTLKISRVEAEDLGIYYCFQFSHVPRTFGGGTKLEIKR
notes: also called 人鼠嵌合抗体mab22c

binding result (小鼠TIGIT-his): no binding (tested: 10μg/mL起始，5倍梯度稀释)
B7: IF091 (鼠源单克隆抗体mab22) (antibody, V domains shown)
VH: EVKLVESGGGLVQPGGSLKLSCVASGFTFSSYTMSWVRQTPEKRLELVAEISSSGGSTYYPDTVKGRFTISRDNAKNTLFLQMNSLKSEDTAMYYCARPGLGAWFAYWGQGTLVTVSA
VL: DVLMTQTPLSLPVSLGDQASISCRSSQSIVHNSGNTYLEWYLQKPGQSPKLLIYKVSNRFSGVPDRFSGSGSGTDFTLKISRVEAEDLGIYYCFQFSHVPRTFGGGTKLEIK
notes: Mouse antibody purified from ascites

binding result [6]: binds
binding result (CHO-K1-T1001细胞表达的人TIGIT [2]): binds
B8: 人源化抗体mab22-h2 (antibody, human IgG1, kappa, V domains shown)
VH: EVQLVESGGGLVQPGGSLRLSCAASGFTFSSYTMSWVRQAPGKGLEWVSEISSSGGSTYYPDTVKGRFTISRDNSKNTLYLQMNSLRAEDTAVYYCARPGLGAWFAYWGQGTLVTVSS
VL: DVVMTQSPLSLPVTPGEPASISCRSSQSIVHNSGNTYLEWYLQKPGQSPKLLIYKVSNRFSGVPDRFSGSGSGTDFTLKISRVEAEDVGVYYCFQFSHVPRTFGGGTKVEIKR
notes: hIgG1, kappa
